Data from patent publication US9221900B2, “Methods for identifying safe and functional humanized antibodies” (AC IMMUNE S.A., priority 2010, dated 2015).

How the values were obtained:
Aβ1-42 = Aβ1-42 (Homo sapiens, UniProt P05067); assay: Aβ ELISA, binding to Aβ peptides and Aβ1-42 assembly states; design: purchased Bachem; details: ELISA; monomeric, oligomeric, fibers, oligomer assemblies
From the text: FIG. 1 provides graphs and immunohistochemical images corresponding to the experiments described in Example 6.1 and 6.2. […] As a control, an anti-Aβ IgG monoclonal antibody with a N-terminal epitope was used. […] The mean (±SEM) of two assays is shown.
Murine anti-Aβ monoclonal antibodies were generated by immunizing mice with an Aβ peptide antigen using a liposomal vaccine formulation as previously described (Muhs et al., 2007). Several criteria were used to select candidate antibodies, including the ability to bind multiple Aβ species and to inhibit Aβ1-42 assembly into small cytotoxic peptide aggregates. A monoclonal murine mAb with an IgG2b backbone (mMABT) was selected for in vivo functionality studies using both single-transgenic murine mutant human APP and double-transgenic murine mutant human APP/PS1 models of Alzheimer's Disease. […] These ranged from monomeric and oligomeric Aβ1-42 fractions isolated by size-exclusion chromatography (SEC), mature Aβ1-42 fibers, to a more complex mixture of highly neurotoxic Aβ1-42 oligomer assemblies, ranging in size from dimers and trimers to higher molecular-weight multimers (see FIG. 8).

[1] = test system: mixed cortical cells from P1 rats; assay: Immunofluorescence of Aβ1-42 oligomer binding to neurons; assay type: cell-based, rat; details: co-treatment, 30 min to 18 h
Method: FIG. 3 provides graphs and immunocytochemical images corresponding to the experiments described in Example 6.4. Aβ1-42 oligomer binding to neurites was reduced by the anti-Aβ IgG4 monoclonal antibody. […] Green indicates staining with TuJ1, red indicates labeling with anti-Aβ (clone 6E10), and blue indicates staining with DAPI. […] Quantitative measures of fluorescence are shown for 30 min treatment and 18 h treatment (B). Mean results (±SEM) of two experiments are shown. […] Cortical cultures from P1 rats were treated as described for (A), except that Aβ1-42 tagged with HyLite Fluor-488 was used (C). Aβ1-42-labeled samples are shown in the upper panel and DAPI-stained samples are shown in the lower panel. One representative experiment is shown. Aβ1-42 fluorescence was quantified, with the mean (±SD) of the two independent experiments shown (D). […]
Aβ peptides, especially aggregation intermediates (Bateman et al., 2007), are known to associate with various lipids and proteins present in cell membranes. […] This effect was readily apparent as early as 30 min (FIGS. 3A and 3B) and remained for at least 18 h of treatment (FIG. 3B).
Cells were grown on a glass coverslips. […] Fluorescence intensity was measured in cell bodies delineated by saturated epifluorescence pictures. […]

Aβ1-42, sequence (P05067 672-713): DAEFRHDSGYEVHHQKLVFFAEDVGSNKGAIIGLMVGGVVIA

MABT: humanized anti-Aβ monoclonal antibody of IgG4 isotype, affinity matured and humanized form of mouse mMABT
binding to different Aβ1-42 peptide preparations (Aβ1-42): highly comparable among the different Aβ1-42 assembly states | interaction of Aβ1-42 oligomers with neurons [1]: blocked the interaction of Aβ1-42 oligomers with neurons
